Laboratory results as given in paper doi:10.1101/2025.09.30.679481.

Molecular target: Bicaudal-D (D. melanogaster (endogenous in embryos)) (UniProt P16568)
Assay: co-IP

Chain of UniProt P16568 (P16568 whole entry): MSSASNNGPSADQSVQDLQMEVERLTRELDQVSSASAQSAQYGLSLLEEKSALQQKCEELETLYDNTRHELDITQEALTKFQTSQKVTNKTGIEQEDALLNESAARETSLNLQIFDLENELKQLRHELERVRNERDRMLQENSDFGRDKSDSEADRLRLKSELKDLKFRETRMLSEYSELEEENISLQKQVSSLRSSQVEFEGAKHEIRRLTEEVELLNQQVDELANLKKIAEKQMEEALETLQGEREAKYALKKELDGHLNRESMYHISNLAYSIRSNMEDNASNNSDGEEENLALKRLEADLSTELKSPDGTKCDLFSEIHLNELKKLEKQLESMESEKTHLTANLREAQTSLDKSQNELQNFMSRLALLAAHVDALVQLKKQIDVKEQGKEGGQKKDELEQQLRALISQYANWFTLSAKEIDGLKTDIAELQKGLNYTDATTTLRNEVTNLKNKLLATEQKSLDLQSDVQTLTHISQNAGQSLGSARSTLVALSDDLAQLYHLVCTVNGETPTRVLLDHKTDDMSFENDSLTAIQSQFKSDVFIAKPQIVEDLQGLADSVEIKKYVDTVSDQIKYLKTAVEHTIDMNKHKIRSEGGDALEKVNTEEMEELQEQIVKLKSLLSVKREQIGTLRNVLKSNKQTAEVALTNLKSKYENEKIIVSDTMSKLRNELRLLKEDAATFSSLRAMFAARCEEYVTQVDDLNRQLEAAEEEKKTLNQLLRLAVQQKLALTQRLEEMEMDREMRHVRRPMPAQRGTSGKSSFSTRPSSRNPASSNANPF

Substance: Imp (natural protein)
- reduction of the co-precipitate by RNase: 84%
